The results in this text go back to IntAct's records for PubMed 15791205.

The labels stand for the following.
B1: Angiotensin-converting enzyme 2 (Rattus norvegicus (Rat)), Q5EGZ1 (parent)
chain: MSSSCWLLLSLVAVATAQSLIEEKAESFLNKFNQEAEDLSYQSSLASWNYNTNITEENAQKMNEAAAKWSAFYEEQSKIAQNFSLQEIQNATIKRQLKALQQSGSSALSPDKNKQLNTILNTMSTIYSTGKVCNSMNPQECFLLEPGLDEIMATSTDYNRRLWAWEGWRAEVGKQLRPLYEEYVVLKNEMARANNYEDYGDYWRGDYEAEGVEGYNYNRNQLIEDVENTFKEIKPLYEQLHAYVRTKLMEVYPSYISPTGCLPAHLLGDMWGRFWTNLYPLTTPFLQKPNIDVTDAMVNQSWDAERIFKEAEKFFVSVGLPQMTPGFWTNSMLTEPGDDRKVVCHPTAWDLGHGDFRIKMCTKVTMDNFLTAHHEMGHIQYDMAYAKQPFLLRNGANEGFHEAVGEIMSLSAATPKHLKSIGLLPSNFQEDNETEINFLLKQALTIVGTLPFTYMLEKWRWMVFQDKIPREQWTKKWWEMKREIVGVVEPLPHDETYCDPASLFHVSNDYSFIRYYTRTIYQFQFQEALCQAAKHDGPLHKCDISNSTEAGQKLLNMLSLGNSGPWTLALENVVGSRNMDVKPLLNYFQPLFVWLKEQNRNSTVGWSTDWSPYADQSIKVRISLKSALGKNAYEWTDNEMYLFRSSVAYAMREYFSREKNQTVPFGEADVWVSDLKPRVSFNFFVTSPKNVSDIIPRSEVEEAIRMSRGRINDIFGLNDNSLEFLGIYPTLKPPYEPPVTIWLIIFGVVMGTVVVGIVILIVTGIKGRKKKNETKREENPYDSMDIGKGESNAGFQNSDDAQTSF

Variants of B1 are the subject of the first test. Conditions: with spike_sars S.
As for N82M;F83Y;S84P;H353K, the “effect of a mutation on the interaction” value was “causing an interaction”.

Variants of B1 are the subject of a further test. Conditions: with spike_sars S. The source holds these as a separate data set.
For the variant N82M;F83Y;S84P;H353K, the “effect of a mutation on the interaction” value is “causing an interaction”.
Consider N82M;F83Y;S84P, for which the “effect of a mutation on the interaction” value is recorded as “causing an interaction”.
The same measure, in the same setting: as for H353K, the entry is “causing an interaction”.
